We go through five molecules from patent US20250003976A1, “ANTIBODIES TARGETING PHOSPHORYLATED SEVEN-TRANSMEMBRANE RECEPTORS” (7TM ANTIBODIES GMBH, priority 2021, published 2025).

The target of one test is μ-opioid receptor (MOP) (Mus musculus, UniProt P42866).
Test [1] addresses T1, MOP (Mus musculus, UniProt P42866). To be noted: 60 min of agonist exposure.
The target of test [2] is T1, MOP. To be noted: 60 min of agonist exposure. The source holds these as a separate data set.
Test [3] deals with hemagglutinin (HA)-tagged mouse µ-opioid receptor (MOP), not phosphorylated (mouse) (UniProt P42866). In words: saturation binding of [3H]DAMGO to membranes of HA-MOP-transfected HEK293 cells.
Chain of hemagglutinin (HA)-tagged mouse µ-opioid receptor (MOP), not phosphorylated (mouse) (P42866 whole entry): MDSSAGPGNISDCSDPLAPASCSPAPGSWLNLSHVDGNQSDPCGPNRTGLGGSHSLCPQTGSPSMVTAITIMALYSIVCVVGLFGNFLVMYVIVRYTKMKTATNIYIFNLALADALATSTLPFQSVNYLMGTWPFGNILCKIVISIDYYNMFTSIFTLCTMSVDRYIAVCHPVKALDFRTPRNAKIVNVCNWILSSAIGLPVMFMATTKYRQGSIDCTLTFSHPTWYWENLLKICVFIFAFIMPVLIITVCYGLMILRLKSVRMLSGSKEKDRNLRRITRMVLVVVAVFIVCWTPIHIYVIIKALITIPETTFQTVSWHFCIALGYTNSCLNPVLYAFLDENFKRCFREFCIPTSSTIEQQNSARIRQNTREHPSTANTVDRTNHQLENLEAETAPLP
Test [4] shares this target. In words: 7TM phosphorylation assay: HA-MOP of untreated cells on anti-HA magnetic beads.
In test [5] the target is hemagglutinin (HA)-tagged mouse µ-opioid receptor (MOP), phosphorylated after DAMGO stimulation (mouse) (UniProt P42866). In words: 7TM phosphorylation assay: HA-MOP of DAMGO-treated cells on anti-HA magnetic beads.
Test [6] has the same target. In words: 7TM phosphorylation assay: HA-MOP on anti-HA magnetic beads, rabbit primary antibody, enzyme-labeled secondary antibody.

T1 sequence (P42866 whole entry): as above
Chain of μ-opioid receptor (MOP) (P42866 whole entry): as above

Turning to `C[C@@H](NC(=O)[C@@H](N)Cc1ccc(O)cc1)C(=O)NCC(=O)N(C)[C@@H](Cc1ccccc1)C(=O)NCCO` [DAMGO, [D-Ala2,N-MePhe4,Gly-ol]-enkephalin], on μ-opioid receptor (MOP), the “extent of MOP phosphorylation resulting from GRK2/3 recruitment” value is given as “full phosphorylation”. For the same molecule, the “recruitment of GRK2 and GRK3 to MOP” value at MOP [1] was “high efficiency”. Further, the “β-arrestin1 and β-arrestin2 recruitment” value at MOP [2] was “virtually identical to those of DAMGO-induced MOP phosphorylation”.

In the case of `CCCCCCCCCCCCCC(=O)O[C@@H]1[C@@H](C)[C@@]2(O)[C@@H](C=C(CO)C[C@]3(O)C(=O)C(C)=C[C@@H]23)[C@@H]2C(C)(C)[C@]12OC(C)=O` [PMA, phorbol 12-myristate 13-acetate], the “T370 phosphorylation of MOP (heterologous, PKC activation)” value on μ-opioid receptor (MOP) is “potent and selective phosphorylation of T370”.

In turn, “[D-Ala2,N-MePhe4,Gly-ol]-enkephalin (DAMGO) (peptide)” had a functional MOPs per cell (saturation binding) (MOPs per cell) in test [3] of 300000.

As to anti-np-MOP antibody (7TM0319N), the optical density (OD) read at 405 nm in test [4] and in test [5] was 0.8 OD at 405 nm each time.

For the molecule anti-pS375-MOP antibody (7TM0319C), the results for the optical density (OD) read at 405 nm in test [4] and in test [6] were 0.2 OD at 405 nm and 1.2 OD at 405 nm, respectively.
